Legend:
SarZ C13S = SarZ C13S (Staphylococcus aureus, UniProt Q5HDG9 1-148, C13S); test: EMSA
SarZ = target: T1, SarZ (Staphylococcus aureus, UniProt Q5HDG9 1-148); test: EMSA
T1 sequence: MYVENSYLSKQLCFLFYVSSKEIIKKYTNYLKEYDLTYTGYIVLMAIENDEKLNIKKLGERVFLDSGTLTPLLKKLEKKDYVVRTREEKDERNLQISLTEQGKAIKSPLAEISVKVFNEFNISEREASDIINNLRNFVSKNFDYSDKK

B1: ohr promoter fragment (ohr1/ohr2) (dsDNA)
DNA 1: TTTTCGAATGGGTAAAGCATAAATGTATTTTAAATTAGGAGGTTATAAGT
DNA 2: ACTTATAACCTCCTAATTTAAAATACATTTATGCTTTACCCATTCGAAAA
B1: binds (SarZ C13S); binds (SarZ).

— paper PMC2698432
